The source of these data is the supplement of paper PMC12042874.

± gives the uncertainty stated by the source.

The nature of the data set: amyloid nucleation score (Sup35N fusion, yeast selection) (log enrichment); library NNK3; higher = more nucleation; inactive = no reads after selection. A digest of the protocol:
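The nucleation score is a DiMSum log enrichment of output over input reads, centred on the mode score of non-aggregating sequences. Sequences under 100 input reads were excluded, and reads came from Illumina sequencing of plasmid inserts. Psi-negative yeast expressing Sup35N fused to peptides of 20 random codons were induced with 100 μM copper sulfate for 24 hours and grown 7 days at 30°C on medium lacking adenine and uracil. Random libraries had three technical output replicates.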

Regarding WSIRMW, the amyloid nucleation score entry is “inactive”.

In the case of PQASVDQFLYFPIWTYLGIN, the amyloid nucleation score result is “inactive”. For YFLDV, the amyloid nucleation score result was “inactive”.

With RIRKRQCWSFVLLLYCGCVT, the amyloid nucleation score result was “inactive”. Turning to RCYNHFHSI, the amyloid nucleation score result was “inactive”. The same measure for RMNQIRLPGRCTY: “inactive”.

YRTARVSG: the amyloid nucleation score result was “inactive”.

For the substance ILRFFIT, the amyloid nucleation score entry is “inactive”. NNTLV: the amyloid nucleation score entry is “inactive”. For the substance CSVGS, the amyloid nucleation score result is “inactive”. Turning to WNNRWVCNLSTSSGMNLLDR, the amyloid nucleation score result was “inactive”. The same measure for RCNGTL: “inactive”. The same measure for CQIKNGLDNQKTDYNSSPF: “inactive”. ISFRYHIYRSNCSQMNGRLT: the amyloid nucleation score entry was “inactive”. With LINGTGDRMYTDLLL the entry was “inactive”.

Take YLYLWSFCMSMVGFSIYRES: the amyloid nucleation score result was “inactive”. Turning to LDYNVRVGIVSRFTQLTHVN, the amyloid nucleation score result was “inactive”.

As for CRYSYSELKFVLFSGVGTSD, the amyloid nucleation score result was “inactive”. In turn, ADNIGRFVYCYCSVLQTTIS returned an amyloid nucleation score of 0.401 ± 0.21. Consider AIFFSFYRSFY, for which the amyloid nucleation score was determined as 1.86 ± 0.053. With YTIYIIIRW the figure was 1.03 ± 0.084; with DNWFN, “inactive”. Substance FLIVGFPGNKLGC showed an amyloid nucleation score of 0.848 ± 0.1. As for YSNYCGQFSIVPIVFFYIVI, the amyloid nucleation score amounted to 1.1 ± 0.15. As for FFSCYVESNSVMGKDFCRVM, the amyloid nucleation score stood at 0.788 ± 0.12.

With CIICFGPRNFESRRKQPDWR, the amyloid nucleation score entry was “inactive”.

LATRWRCCSCNAWS returned an amyloid nucleation score of -0.593 ± 1.1. As to ATCRRFTLVQPSYLVPCEPY, the amyloid nucleation score result was “inactive”. With NRAVNFIVWWMYL, the amyloid nucleation score entry is “inactive”. For the substance LYGIFHRYTNFCSSVLCQVF, the amyloid nucleation score was 1.66 ± 0.12.

Turning to DRVFLQPTCYITAGYGFRVM, the amyloid nucleation score result is “inactive”. For WIDRQLKRGL, the amyloid nucleation score result is “inactive”.

As to CPYLSSVLHDAQLKATFING, the amyloid nucleation score was 1.11 ± 0.096.

Consider LSHYVMVTYRAKGRMAGRIW, for which the amyloid nucleation score result was “inactive”.

In the case of RVCDMVNTASWAIICSCLHL, the amyloid nucleation score stood at 2.05 ± 0.068. Substance NVNLVSIVVVIMDEKDKVKE yielded an amyloid nucleation score of 2.84 ± 0.07. MLSSCRVFRLFCFNCVTLNR displayed an amyloid nucleation score of 0.816 ± 0.16. On to RRSNSHYM, for which the amyloid nucleation score result was “inactive”.

Consider YSKYSYSCVDGMIW, for which the amyloid nucleation score entry was “inactive”. As for RKLLCWTRDGRIWMRVEGTA, the amyloid nucleation score entry was “inactive”. For LNGMFG, the amyloid nucleation score result is “inactive”. The same measure for CEHCMYNRKPR: “inactive”. DDVLYS came in with an amyloid nucleation score of -0.19 ± 0.34. As for TRSGST, the amyloid nucleation score entry is “inactive”. Consider DLCVLAMASFEVAIAHGRPR, for which the amyloid nucleation score stood at 0.172 ± 0.88. With VYCLAECYRIMRYAPFQVV the entry was “inactive”. With PGVLLVWLSYSGSRLLS the entry was “inactive”; with DLSTTLINPIEEQPYHFAVP, “inactive”; with WSSSW, “inactive”.

Regarding TVGTIPFWVALPSTSLNR, the amyloid nucleation score result is “inactive”.

Regarding CSLIQSVRSTA, the amyloid nucleation score entry is “inactive”.

As for WGILW, the amyloid nucleation score was 0.482 ± 0.15. For the substance LRTWLL, the amyloid nucleation score entry is “inactive”.

Consider IFNMSQYNKLECTLTLY, for which the amyloid nucleation score result was “inactive”. Take LQRVFLENRTSVYSVTG: the amyloid nucleation score result is “inactive”. Consider VHVLVVWYFAFTCVCRVPFG, for which the amyloid nucleation score is 0.228 ± 0.85. Consider VSRYGYCCRRIYAELHGFPD, for which the amyloid nucleation score result is “inactive”. With AEHYVRYRRCSATWRICWMY the entry was “inactive”; with SFNHFQCLFISPLTRCARGV, 1.51 ± 0.13. With FYQNLFRILMHNVHAVCPCY, the amyloid nucleation score result was “inactive”. On to SFFLIRG, for which the amyloid nucleation score entry was “inactive”. Consider KVTYFKSMMHYDNMQSSVRC, for which the amyloid nucleation score result was “inactive”.

Take WDSWESYFASHHSF: the amyloid nucleation score result is “inactive”. As to SKLGYRRVSKCIGTDFN, the amyloid nucleation score entry is “inactive”. Substance MIMYIGVCVSVGLFEDYAYR showed an amyloid nucleation score of 0.044 ± 0.49. With IENRFVSFLYL the figure was 1.88 ± 0.075; with WGWPSFTCTWLCRRSSCRWP, “inactive”. With YDDVFFYSWVTFLRQLFDPL the entry was “inactive”; with SSECSMALIL, “inactive”. For FHYVCFTFDSKFVGKLSYGS, the amyloid nucleation score came out at 1.61 ± 0.1. For the substance FNYRFSLSHKNGFTRVNYGL, the amyloid nucleation score result was “inactive”. KYMGAVFYIIHRTEERYF gave an amyloid nucleation score of 0.874 ± 0.13. For the substance FNNFRFTGQHR, the amyloid nucleation score result is “inactive”. Consider RLTGCRWDSPVTKVNIRWVY, for which the amyloid nucleation score result is “inactive”. The same measure for WQVVGYKNLDLCVNLATTDW: “inactive”; for TKVFS: “inactive”. For the substance HVLGRKLFHGVAVVLFSCEL, the amyloid nucleation score result is “inactive”. NDGFQYRGHRWCLYNHL: the amyloid nucleation score result is “inactive”. With ILLKNFGYEHAAKLNTMKMI the entry was “inactive”; with SLMNPNFFLHMVIRTNCYLK, “inactive”; with IVNIKMNLWFYGNFMLWASS, “inactive”.

In the case of FIYSHTVWFRNYLHMYPILF, the amyloid nucleation score entry is “inactive”. As for RVSFTSITWVSSLM, the amyloid nucleation score amounted to 0.003 ± 0.98. Turning to IYYPIMCAAVAYLLSSRFRC, the amyloid nucleation score result is “inactive”. For ACGRVNVCYLTPMVRHSGRS, the amyloid nucleation score entry was “inactive”. With SRCPRMGYQHALRRWLLPVW, the amyloid nucleation score entry is “inactive”. On to IYCPYVGCVMSLGTGCM, for which the amyloid nucleation score is 1.06 ± 0.19. As to VDWWSALEDYYSLELLMEVK, the amyloid nucleation score entry is “inactive”.

For GLRLFYAHRYAC, the amyloid nucleation score entry was “inactive”. Turning to YFSRMVKVRSNI, the amyloid nucleation score result is “inactive”. Regarding LWKFSILAYRRFILFKLQMN, the amyloid nucleation score result was “inactive”. For the substance KIMSYHIHVMFLLDYMKDRS, the amyloid nucleation score came to 1.28 ± 0.15. Regarding GCNDSSARLS, the amyloid nucleation score result is “inactive”.

In the case of QSFLATSFSFYFLSPGYVNY, the amyloid nucleation score entry is “inactive”. On to LMVASISNVQRRIVRVKLCD, for which the amyloid nucleation score entry was “inactive”.

For the substance VRVMDLVGKALSTSSVANLA, the amyloid nucleation score entry was “inactive”. In the case of ADWRIKFYGCGDLGLFWES, the amyloid nucleation score result is “inactive”. As for LNFDNRNFFGDMSAESATPF, the amyloid nucleation score result is “inactive”. As to YVLNKGFWGGNTLQSWRVSD, the amyloid nucleation score entry was “inactive”.
